From patent US6489103 come the findings set out here.

This data set deals with M.HhaI DNA methyltransferase (Haemophilus parahaemolyticus). As to the kind of experiment: cleavage_in_vitro. To be noted: up to 20% of compartmentalised genes protected from HhaI after 60-180 min; HaeIII and EcoRI sites not protected; SAM 80 uM, 25-30 C.

In turn, DIG-M.HhaI-Biotin 1167 bp fragment registered an activity of 20%.
